Measurements from patent publication US20080141385, “Skn-1 and Gsk-3 Genes and Proteins” (published 2008).

T1: SKN-1 peptides (UniProt P34707)
T1 sequence: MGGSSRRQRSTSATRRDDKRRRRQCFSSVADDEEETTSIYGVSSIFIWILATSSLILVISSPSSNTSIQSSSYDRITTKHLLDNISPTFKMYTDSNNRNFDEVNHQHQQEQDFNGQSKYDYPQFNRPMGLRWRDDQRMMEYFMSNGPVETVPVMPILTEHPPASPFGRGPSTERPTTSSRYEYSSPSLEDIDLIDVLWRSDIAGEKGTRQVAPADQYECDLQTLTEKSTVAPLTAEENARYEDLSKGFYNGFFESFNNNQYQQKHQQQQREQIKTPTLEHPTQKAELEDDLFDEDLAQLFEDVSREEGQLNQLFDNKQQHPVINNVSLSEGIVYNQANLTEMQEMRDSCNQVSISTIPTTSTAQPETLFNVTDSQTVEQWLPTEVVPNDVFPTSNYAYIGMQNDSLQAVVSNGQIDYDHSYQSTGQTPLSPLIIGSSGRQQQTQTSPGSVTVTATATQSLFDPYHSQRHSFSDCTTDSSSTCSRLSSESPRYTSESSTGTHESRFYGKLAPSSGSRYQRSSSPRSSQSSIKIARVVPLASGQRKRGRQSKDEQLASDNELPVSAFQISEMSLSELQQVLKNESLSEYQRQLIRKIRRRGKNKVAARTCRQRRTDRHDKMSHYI

T2: SKN-1 full-length (Caenorhabditis elegans, UniProt P34707 SEQ:1-533)
T2 sequence: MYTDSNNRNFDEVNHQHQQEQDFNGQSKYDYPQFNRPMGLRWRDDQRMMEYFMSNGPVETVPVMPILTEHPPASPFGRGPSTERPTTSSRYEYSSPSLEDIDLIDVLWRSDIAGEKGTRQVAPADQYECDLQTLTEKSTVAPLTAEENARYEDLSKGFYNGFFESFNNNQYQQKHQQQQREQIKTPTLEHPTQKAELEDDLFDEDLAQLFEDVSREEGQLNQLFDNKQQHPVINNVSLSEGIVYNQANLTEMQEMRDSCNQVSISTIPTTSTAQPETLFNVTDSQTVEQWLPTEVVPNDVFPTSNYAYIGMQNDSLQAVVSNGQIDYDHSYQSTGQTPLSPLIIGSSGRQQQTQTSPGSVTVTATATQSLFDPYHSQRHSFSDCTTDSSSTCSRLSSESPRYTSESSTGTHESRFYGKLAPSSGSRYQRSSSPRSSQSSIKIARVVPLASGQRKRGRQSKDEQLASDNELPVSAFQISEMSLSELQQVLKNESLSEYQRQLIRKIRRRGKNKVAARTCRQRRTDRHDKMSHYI

T3: SKN-1 DNA binding domain (SKN domain, 85 aa) (Caenorhabditis elegans, UniProt P34707 SEQ:1-85)
T3 sequence: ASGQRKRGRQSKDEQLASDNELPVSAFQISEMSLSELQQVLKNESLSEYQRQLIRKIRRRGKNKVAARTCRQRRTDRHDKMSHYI


Experiments:
SKN-1 peptides = biological target: T1, SKN-1 peptides
SKN-1 full-length = biological target: T2, SKN-1 full-length; test: EMSA; no binding to mutant probe; as unlabeled competitor much less effective than wild type; details: label: 32P
Experimental: (§1) FIGS. 4A and 4B: Specific binding of SKN-1 to an essential gcs-1 promoter sequence. 4A: Binding of full-length SKN-1 to site 3 within the gcs-1 composite element, assayed by EMSA. Lanes 2-5 show binding of increasing amounts of in vitro translated SKN-1 protein (0 μl, 0.25 μl, 0.5 μl, 3 μl translation lysate; indicated by a triangle) to the wild type site. […] A background species is labeled. Lanes 6-10 show the same assay performed with the mutant probe. In lanes 11-20, SKN-1-DNA binding is assayed in the presence of the indicated unlabelled competitor oligonucleotides. Lanes 12-15 and 17-20 correspond to addition of a 20-, 50-, 150-, and 400-fold molar excess of competitor over the labeled wild-type DNA. 4B: The in vitro translated SKN-1 DNA binding domain (FIG. 1B) binds specifically to the gcs-1 composite element. Binding was assayed as in 4A.
(§2) Remarkably, SKN-1 binding site 3 is located within a 42 bp gcs-1 promoter element that is similar to a composite motif through which SKN-1 activates med-1 and med-2 in the embryo (FIGS. 1A and 3C) (Maduro et al. Mol. Cell 7: 475-485 (2001)). The conservation between these gcs-1 and med promoter elements is particularly striking because they are located at identical distances from their respective translation starts, but contain different numbers of SKN-1 sites (FIG. 3C). […]

[1] = biological target: T3, SKN-1 DNA binding domain (SKN domain, …); test: as above; details: label: 32P
Experimental: as §1, §2

Row | Molecule | phosphorylation of SKN-1 by GSK-3 (SKN-1 peptides) | phosphorylation of SKN-1 peptides by GSK-3 (SKN-1 peptides) | binding result (SKN-1 full-length) | binding result [1]
1 | GSK-3 | GSK-3 then phosphorylates SKN-1 sequentially in the amino-terminal direction | Phosphorylation by GSK-3 required priming phosphorylation at a serine or threonine residue located four positions carboxyl-terminal to the GSK-3 site |  | 
2 | gcs-1 composite element, site 3 mutant (dsDNA) DNA 1: ACTTTCTGCAGATGAGATTTAATGTTTCCTTTTGATTTTCT DNA 2: AGAAAATCAAAAGGAAACATTAAATCTCATCTGCAGAAAGT |  |  | no binding | no binding
